Experimental data: US7407939B2, “Protein kinase inhibitors comprising ATP mimetics conjugated to peptides or peptidomimetics” (CureGenics Ltd., priority 2001, dated 2008)

Test system: PC-3 cells
Assay: ssDNA apoptosis ELISA (induction of apoptosis in prostate cancer cells)
Assay type: cell-based
Conditions: 50 μM, optical density of treated divided by untreated cells
Procedure: Cells were assayed for Apoptosis using the ssDNA Apoptosis ELISA kit (Chemicon International Inc.). Cells were seeded in 96-well plates (5000 cells/well) and treated with different concentrations of the inhibitors. At different time point, plates were centrifuges at 200 g for 5 min, medium was removed and the cells were fixed with 80% methanol in PBS for 30 min at room temperature. Plates were dried by floating in a waterbath at 37° C. for 20 minutes. 50 μl of Formamide was added to each well and incubate at room temperature for 10 min. Plates were heated to 75° C. in a circulating waterbath for 10 min, cooled in refrigerator for 5 min, and then formamide was removed. […] Plates were monitored for colour development by ABTS using microplate reader at 405 nm.
DNA in apoptotic cells is sensitive to denaturation by formamide in contrast to necrotic cells. […] The specific denaturation was detected with monoclonal antibody to single stranded DNA. Using ssDNA Apoptosis ELISA kit (Chemicon International, Inc.) chimeric compounds were analyzed for their potential to induce apoptosis in PC-3 cells compared to TRAIL (TNF-related apoptosis-inducing ligand), a known apoptotic agent (R&D Systems, Inc.). Results are presented in values of apoptotic index which is calculated by dividing the optical density of treated and untreated cells.

B1: TRAIL: TNF-related apoptosis-inducing ligand, a known apoptotic agent (R&D Systems, Inc.) (protein, UniProt P50591 1-281, looked up)
Tumor necrosis factor ligand …: MAMMEVQGGPSLGQTCVLIVIFTVLLQSLCVAVTYVYFTNELKQMQDKYSKSGIACFLKEDDSYWDPNDEESMNSPCWQVKWQLRQLVRKMILRTSEETISTVQEKQQNISPLVRERGPQRVAAHITGTRGRSNTLSSPNSKNEKALGRKINSWESSRSGHSFLSNLHLRNGELVIHEKGFYYIYSQTYFRFQEEIKENTKNDKQMVQYIYKYTSYPDPILLMKSARNSCWSKDAEYGLYSIYQGGIFELKENDRIFVSVTNEHLIDMDHEASFFGAFLVG
With B1 the “Apoptotic index (48 hours)” value was 2.3.
